# B1: BguH (Pseudomonas sp. KHPS1) (protein)
# chain: MSERNHEKGMLLAIEQALKAVASGEPPFGVVILDAQGELVAATHDEVNTRGDMSAHAETLAVRAACQVRGPSLEGCFLYTTCEPCPMCFTTAWLARIGGVVYATTMDEVHKILGDAQRELRVPVTQMNDLSGEPVTLVKGVLRDRCLQLFREHAATLATTK
# notes: N-terminal His6 tag (pET28b), E. coli codon-optimised synthetic gene, E. coli BL21(DE3)-RIPL host
# Substrate: N=C(N)NC(=N)N
# Test: purified protein
# Assay type: biochemical, Pseudomonas sp. KHPS1
# Conditions: 100 mM potassium phosphate, pH 8.0, 25 °C, 0.5 mM NADH, 0.5 mM 2-oxoglutarate, 1.5 U GDH
protein,measurement,value
B1,Km,620 ± 160 µM
same,kcat,8.1 ± 0.8 s⁻¹
